# Columns and labels:
# active TGFβ1 [1] = target: T1, active TGFβ1 (human, UniProt P01137 279-390); test: cell-based or functional assay
# T1 construct: mature; also called TGFb1; human active TGFβ1
# active TGFβ3 = active TGFβ3 (UniProt P10600); test: blocking of active TGFβ3 (1 ng/mL) in solution, 30 min in PBS; free TGFβ3 by ELISA
# active TGFβ1 [2] = target: T1, active TGFβ1; test: blocking of active TGFβ1 (1 ng/mL) in solution, 30 min in PBS; free TGFβ1 by ELISA
# T1 sequence (P01137 279-390 limits assumed): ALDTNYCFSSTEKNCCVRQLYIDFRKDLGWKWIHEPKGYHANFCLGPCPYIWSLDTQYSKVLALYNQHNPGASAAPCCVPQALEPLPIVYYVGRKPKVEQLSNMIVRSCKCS
# Chain of active TGFβ3 (P10600 301-412): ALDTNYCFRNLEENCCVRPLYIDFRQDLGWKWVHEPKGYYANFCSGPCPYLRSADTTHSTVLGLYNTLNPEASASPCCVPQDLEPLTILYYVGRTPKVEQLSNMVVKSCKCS
IC50 values for the inhibition of TGFb1-dependent suppression of CTLL-2 cell proliferation (active TGFβ1 [1]),IC50 (active TGFβ3),IC50 (active TGFβ1 [2]),Molecule
0.12,3.6 nM,1.29 nM,FIST (monovalent FIST; fusion protein of an IL-2 polypeptide and a single sTBRII receptor polypeptide)
,,0.02 nM,"sTBRII isoform 2 (long) (receptor, UniProt P37173-2 23-191, looked up, also called TbRII (isoform II); TβRII isoform 2) TIPPHVQKSDVEMEAQKDEIICPSCNRTAHPLRHINNDMIVTDNNGAVKFPQLCKFCDVRFSTCDNQKSCMSNCSITSICEKPQEVCVAVWRKNDENITLETVCHDPKLPYHDFILEDAASPKCIMKEKKKPGETFFMCSCSSDECNDNIIFSEEYNTSNPDLLLVIFQ"
